Results taken from patent US20190041402A1 (GOVERNING COUNCIL OF THE UNIVERSITY OF TORONTO, published 2019).
Changes are numbered by the printed parent chain.

T1: extracellular domain (ECD) of human αKlotho, amino acids E34-S981 with C-terminal 6-His tag (R&D Systems … (human, UniProt Q9UEF7 34-981))
T1 construct: range 34-981; also called αKlotho (aa34-981); target antigen
T1 sequence: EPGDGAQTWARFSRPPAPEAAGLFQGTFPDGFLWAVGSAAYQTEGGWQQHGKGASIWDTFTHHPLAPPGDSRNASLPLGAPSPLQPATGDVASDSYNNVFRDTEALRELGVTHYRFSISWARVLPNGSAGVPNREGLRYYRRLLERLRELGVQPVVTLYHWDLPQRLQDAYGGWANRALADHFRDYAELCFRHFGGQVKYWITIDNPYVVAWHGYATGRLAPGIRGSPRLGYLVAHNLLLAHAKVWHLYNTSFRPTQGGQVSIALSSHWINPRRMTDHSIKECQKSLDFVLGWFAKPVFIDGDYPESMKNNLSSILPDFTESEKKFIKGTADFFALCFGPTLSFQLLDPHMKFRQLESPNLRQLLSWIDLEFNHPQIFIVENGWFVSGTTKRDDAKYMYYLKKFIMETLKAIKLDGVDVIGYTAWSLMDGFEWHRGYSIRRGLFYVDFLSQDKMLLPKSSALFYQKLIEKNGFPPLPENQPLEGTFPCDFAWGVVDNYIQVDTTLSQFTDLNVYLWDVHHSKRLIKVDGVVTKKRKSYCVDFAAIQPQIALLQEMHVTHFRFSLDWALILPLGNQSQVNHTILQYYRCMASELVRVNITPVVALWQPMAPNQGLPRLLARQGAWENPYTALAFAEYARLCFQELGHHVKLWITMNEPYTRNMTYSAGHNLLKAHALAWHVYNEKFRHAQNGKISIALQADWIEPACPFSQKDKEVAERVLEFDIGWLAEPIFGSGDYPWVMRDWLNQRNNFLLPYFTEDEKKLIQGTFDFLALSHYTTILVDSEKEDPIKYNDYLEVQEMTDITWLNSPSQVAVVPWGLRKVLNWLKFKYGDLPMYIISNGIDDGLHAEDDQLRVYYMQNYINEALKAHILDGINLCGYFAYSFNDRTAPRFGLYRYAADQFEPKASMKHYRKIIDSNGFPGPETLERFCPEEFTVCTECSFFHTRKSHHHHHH

B1: anti-αKlotho Fab clone 4804 (Fab, V domains shown)
VH: EVQLVESGGGLVQPGGSLRLSCAASGFNLYSYSIHWVRQAPGKGLEWVAYISSSSGSTYYADSVKGRFTISADTSKNTAYLQMNSLRAEDTAVYYCARGWGGGYWFYPVYGIDYWGQGTLVTVSS
VL: DIQMTQSPSSLSASVGDRVTITCRASQSVSSAVAWYQQKPGKAPKLLIYSASSLYSGVPSRFSGSRSGTDFTLTISSLQPEDFATYYCQQSSYSLITFGQGTKVEIKR
notes: Fab (also as Fab-phage); FLAG tag on light chain C-terminus; also called sb173
B2: anti-αKlotho Fab clone 4807 (Fab, V domains shown)
VH: EVQLVESGGGLVQPGGSLRLSCAASGFNLSSSYMHWVRQAPGKGLEWVASIYPSYGSTSYADSVKGRFTISADTSKNTAYLQMNSLRAEDTAVYYCARGVVPSYYYWFWPYGAIDYWGQGTLVTVSS
VL: B1 VL
notes: Fab (also as Fab-phage); FLAG tag on light chain; also called sb176
B3: anti-αKlotho Fab clone 4805 (Fab, V domains shown)
VH: EVQLVESGGGLVQPGGSLRLSCAASGFNLSYYSMHWVRQAPGKGLEWVASISSYYGSTYYADSVKGRFTISADTSKNTAYLQMNSLRAEDTAVYYCARGGGYYSGPYAGFDYWGQGTLVTVSS
VL: DIQMTQSPSSLSASVGDRVTITCRASQSVSSAVAWYQQKPGKAPKLLIYSASSLYSGVPSRFSGSRSGTDFTLTISSLQPEDFATYYCQQSSGWYHFLFTFGQGTKVEIKR
notes: Fab (also as Fab-phage); FLAG tag on light chain; also called sb174
B4: anti-αKlotho Fab clone 4829 (Fab, V domains shown)
VH: EVQLVESGGGLVQPGGSLRLSCAASGFNISSYYIHWVRQAPGKGLEWVASIYSSYGYTSYADSVKGRFTISADTSKNTAYLQMNSLRAEDTAVYYCARYSWSPYWWWAYSGLDYWGQGTLVTVSS
VL: DIQMTQSPSSLSASVGDRVTITCRASQSVSSAVAWYQQKPGKAPKLLIYSASSLYSGVPSRFSGSRSGTDFTLTISSLQPEDFATYYCQQGGGLITFGQGTKVEIKR
notes: Fab (also as Fab-phage); FLAG tag on light chain; also called sb198
B5: anti-αKlotho Fab clone 4832 (Fab, V domains shown)
VH: EVQLVESGGGLVQPGGSLRLSCAASGFNFSSSSIHWVRQAPGKGLEWVAYISSSYGYTSYADSVKGRFTISADTSKNTAYLQMNSLRAEDTAVYYCARASGWFSHFYPAAVSGMDYWGQGTLVTVSS
VL: B1 VL
notes: Fab (also as Fab-phage); FLAG tag on light chain; also called sb201
B6: anti-αKlotho Fab clone 4828 (Fab, V domains shown)
VH: EVQLVESGGGLVQPGGSLRLSCAASGFNFSSSSIHWVRQAPGKGLEWVASISSSYGYTYYADSVKGRFTISADTSKNTAYLQMNSLRAEDTAVYYCARYVVGGWWYHYGMDYWGQGTLVTVSS
VL: B1 VL
notes: Fab (also as Fab-phage); FLAG tag on light chain; also called sb197
B7: anti-αKlotho Fab clone 4830 (Fab, V domains shown)
VH: EVQLVESGGGLVQPGGSLRLSCAASGFNIYYSSIHWVRQAPGKGLEWVASIYPYYSYTYYADSVKGRFTISADTSKNTAYLQMNSLRAEDTAVYYCARSVASALDYWGQGTLVTVSS
VL: B3 VL with S91Y, G93W, W94Y, Y95W, H96Y, F97S, L98P, F99I
notes: Fab (also as Fab-phage); FLAG tag on light chain; also called sb199
B8: anti-αKlotho Fab clone 4833 (Fab, V domains shown)
VH: EVQLVESGGGLVQPGGSLRLSCAASGFNLSSYYMHWVRQAPGKGLEWVASIYPSYSSTYYADSVKGRFTISADTSKNTAYLQMNSLRAEDTAVYYCARSSYSVYFWWYVSAMDYWGQGTLVTVSS
VL: DIQMTQSPSSLSASVGDRVTITCRASQSVSSAVAWYQQKPGKAPKLLIYSASSLYSGVPSRFSGSRSGTDFTLTISSLQPEDFATYYCQQSSHGHYPITFGQGTKVEIKR
notes: Fab (also as Fab-phage); FLAG tag on light chain; also called sb202

Target: T1, extracellular domain (ECD) of human …
Experiment: SPR, Fab captured by anti-H+L IgG, αKlotho injected at 50 to 6.25 ug/ml, Langmuir fit
Protocol: (§1) Affinity estimates for each of the antibodies were determined by surface plasmon resonance (SPR). Fabs were immobilized using an anti-H+L antibody and serial dilutions of αKlotho were injected.

Which Kd does the source give for B1 here?
The Kd was 0.516 nM.

What about the koff of the same binder?
Its koff is 0.000738 s⁻¹.

And the kon?
The kon was 1.43e+06 M⁻¹ s⁻¹.

Which Kd does the source give for B2 here?
The Kd was 3.5 nM.

What about the koff of the same binder?
The koff was 0.00244 s⁻¹.

What about the kon of the same binder?
The kon was 698000 M⁻¹ s⁻¹.

B3 was tested. Which Kd did it give?
The Kd was 0.117 nM.

And the koff?
Its koff is 0.000183 s⁻¹.

What about the kon of the same binder?
The kon was 1.57e+06 M⁻¹ s⁻¹.

Target: T2, bovine serum albumin (bovine, UniProt P02769 25-607)
T2 construct: also called BSA
Experiment: Fab ELISA, purified Fab 5 ug/ml on immobilised BSA, anti-Flag-HRP, A450
Protocol: FIG. 10 is a graph showing absorbance values of Fab ELISAs with additional αKlotho antibodies. Purified Fabs [5 ug/ml] were incubated with immobilized αKlotho (1 ug/ml) or bovine serum albumin (BSA), as a negative control. After washing off unbound Fab, bound Fab were detected using an HRP-conjugated anti-Flag anti-body (Fabs have Flag-tag on the light chain). Colorimetric HRP reagents allow for absorbance readings at 450 nm.

T2 sequence (P02769 25-607 limits assumed): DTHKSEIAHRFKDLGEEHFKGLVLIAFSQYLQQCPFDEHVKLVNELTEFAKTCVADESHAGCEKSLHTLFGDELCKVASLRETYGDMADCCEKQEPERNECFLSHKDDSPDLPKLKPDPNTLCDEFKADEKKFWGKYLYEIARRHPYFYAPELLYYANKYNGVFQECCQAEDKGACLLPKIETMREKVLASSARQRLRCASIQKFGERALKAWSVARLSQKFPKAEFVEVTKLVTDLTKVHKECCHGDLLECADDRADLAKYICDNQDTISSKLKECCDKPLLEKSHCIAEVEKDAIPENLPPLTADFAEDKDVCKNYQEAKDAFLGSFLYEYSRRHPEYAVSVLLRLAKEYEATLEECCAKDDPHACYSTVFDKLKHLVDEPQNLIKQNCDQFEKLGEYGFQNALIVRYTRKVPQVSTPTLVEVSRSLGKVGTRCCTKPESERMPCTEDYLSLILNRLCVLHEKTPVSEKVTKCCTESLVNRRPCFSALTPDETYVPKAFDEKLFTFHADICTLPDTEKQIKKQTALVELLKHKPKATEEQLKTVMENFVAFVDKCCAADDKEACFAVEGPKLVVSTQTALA

Does B4 bind?
Result: no binding (tested: 5 ug/ml)

Does B5 bind?
Result: no binding (tested: 5 ug/ml)

Does B6 bind?
Result: no binding (tested: 5 ug/ml)

Does B7 bind?
Result: no binding (tested: 5 ug/ml)

Does B8 bind?
Result: no binding (tested: 5 ug/ml)

Target: T1, extracellular domain (ECD) of human …
Experiment: SPR, Fab captured by anti-H+L antibody, αKlotho injected
Protocol: as §1

Which Kd does the source give for B4 here?
Its Kd is 1.8 nM.

Which Kd does the source give for B1 here?
Its Kd is 0.77 nM.

For B2, which Kd is on record?
The Kd was 6.1 nM.

How did the Kd turn out when B5 was run?
The Kd was 0.515 nM.

How did the Kd turn out when B6 was run?
The Kd was 4.9 nM.

B3 was tested. Which Kd did it give?
Its Kd is 0.24 nM.

With B7 as the binder, how does the Kd read?
The Kd was 2.9 nM.

For B8, which Kd is on record?
The Kd was 1.4 nM.

Target: T1, extracellular domain (ECD) of human …
Experiment: SPR, Fab captured by anti-H+L IgG, αKlotho injected at 50 to 6.25 ug/ml, Langmuir fit [continued]
Protocol: as §1

With B4 as the binder, how does the Kd read?
The Kd was 0.907 nM.

What about the koff of the same binder?
Its koff is 0.000614 s⁻¹.

And the kon?
Its kon is 678000 M⁻¹ s⁻¹.

B5 was tested. Which Kd did it give?
The Kd was 0.123 nM.

What about the koff of the same binder?
Its koff is 4.61e-05 s⁻¹.

And the kon?
The kon was 374000 M⁻¹ s⁻¹.

For B6, which Kd is on record?
Its Kd is 2.48 nM.

And the koff?
Its koff is 0.000782 s⁻¹.

And the kon?
Its kon is 315000 M⁻¹ s⁻¹.

What does the source list for B7?
Kd: 1.53 nM; koff: 0.00113 s⁻¹; kon: 741000 M⁻¹ s⁻¹

How did the Kd turn out when B8 was run?
The Kd was 0.703 nM.

And the koff?
The koff was 0.000519 s⁻¹.

What about the kon of the same binder?
Its kon is 739000 M⁻¹ s⁻¹.
